# B1: Bcl-2-like protein 12 (Homo sapiens), Q9HB09 (parent)
# chain: MAGSEELGLREDTLRVLAAFLRRGEAAGSPVPTPPRSPAQEEPTDFLSRLRRCLPCSLGRGAAPSESPRPCSLPIRPCYGLEPGPATPDFYALVAQRLEQLVQEQLKSPPSPELQGPPSTEKEAILRRLVALLEEEAEVINQKLASDPALRSKLVRLSSDSFARLVELFCSRDDSSRPSRACPGPPPPSPEPLARLALAMELSRRVAGLGGTLAGLSVEHVHSFTPWIQAHGGWEGILAVSPVDLNLPLD
# Variants of: B1
# Details: with bax_human BAX
row,effect of a mutation on the interaction,Variant
1,with no effect,MAGSEELGLREDTLRVLAAFLRRGEAAGSPVPTPPRSPAQEEPTDFLSRLRRCLPCSLGRGAAPSESPRPCSLPIRPCYGLEPGPATPDFYALVAQRLEQLVQEQLKSPPSPELQGPPSTEKEAALRRLVALLEEEAEVINQKLASDPALRSKLVRLSSDSFARLVELFCSRDDSSRPSRACPGPPPPSPEPLARLALAMELSRRVAGLGGTLAGLSVEHVHSFTPWIQAHGGWEGILAVSPVDLNLPLD [I125A]
2,with no effect,MAGSEELGLREDTLRVLAAFLRRGEAAGSPVPTPPRSPAQEEPTDFLSRLRRCLPCSLGRGAAPSESPRPCSLPIRPCYGLEPGPATPDFYALVAQRLEQLVQEQLKSPPSPELQGPPSTEKEAILRRLVALLEEAAEVINQKLASDPALRSKLVRLSSDSFARLVELFCSRDDSSRPSRACPGPPPPSPEPLARLALAMELSRRVAGLGGTLAGLSVEHVHSFTPWIQAHGGWEGILAVSPVDLNLPLD [E136A]
3,with no effect,MAGSEELGLREDTLRVLAAFLRRGEAAGSPVPTPPRSPAQEEPTDFLSRLRRCLPCSLGRGAAPSESPRPCSLPIRPCYGLEPGPATPDFYALVAQRLEQLVQEQLKSPPSPELQGPPSTEKEAILRRAVALLEEEAEVINQKLASDPALRSKLVRLSSDSFARLVELFCSRDDSSRPSRACPGPPPPSPEPLARLALAMELSRRVAGLGGTLAGLSVEHVHSFTPWIQAHGGWEGILAVSPVDLNLPLD [L129A]
4,with no effect,MAGSEELGLREDTLRVLAAFLRRGEAAGSPVPTPPRSPAQEEPTDFLSRLRRCLPCSLGRGAAPSESPRPCSLPIRPCYGLEPGPATPDFYALVAQRLEQLVQEQLKSPPSPELQGPPSTEKEAILRRLVALLAEEAEVINQKLASDPALRSKLVRLSSDSFARLVELFCSRDDSSRPSRACPGPPPPSPEPLARLALAMELSRRVAGLGGTLAGLSVEHVHSFTPWIQAHGGWEGILAVSPVDLNLPLD [E134A]
5,with no effect,MAGSEELGLREDTLRVLAAFLRRGEAAGSPVPTPPRSPAQEEPTDFLSRLRRCLPCSLGRGAAPSESPRPCSLPIRPCYGLEPGPATPDFYALVAQRLEQLVQEQLKSPPSPELQGPPSTEKEAILRRLVALAEEEAEVINQKLASDPALRSKLVRLSSDSFARLVELFCSRDDSSRPSRACPGPPPPSPEPLARLALAMELSRRVAGLGGTLAGLSVEHVHSFTPWIQAHGGWEGILAVSPVDLNLPLD [L133A]
6,with no effect,MAGSEELGLREDTLRVLAAFLRRGEAAGSPVPTPPRSPAQEEPTDFLSRLRRCLPCSLGRGAAPSESPRPCSLPIRPCYGLEPGPATPDFYALVAQRLEQLVQEQLKSPPSPELQGPPSTEKEAILRRLVAALEEEAEVINQKLASDPALRSKLVRLSSDSFARLVELFCSRDDSSRPSRACPGPPPPSPEPLARLALAMELSRRVAGLGGTLAGLSVEHVHSFTPWIQAHGGWEGILAVSPVDLNLPLD [L132A]

# Variants of: B1
# Details: with gsk3b_human GSK3B
row,effect of a mutation on the interaction,Variant
1,disrupting interaction strength,MAGSEELGLREDTLRVLAAFLRRGEAAGSPVPTPPRSPAQEEPTDFLSRLRRCLPCSLGRGAAPSESPRPCSLPIRPCYGLEPGPATPDFYALVAQRLEQLVQEQLKSPPSPELQGPPSTEKEAALRRLVALLEEEAEVINQKLASDPALRSKLVRLSSDSFARLVELFCSRDDSSRPSRACPGPPPPSPEPLARLALAMELSRRVAGLGGTLAGLSVEHVHSFTPWIQAHGGWEGILAVSPVDLNLPLD [I125A]

# Variants of: B1
# Details: with BCL2L1, Q07817-1
# Sequence of BCL2L1, Q07817-1 (Q07817 whole entry): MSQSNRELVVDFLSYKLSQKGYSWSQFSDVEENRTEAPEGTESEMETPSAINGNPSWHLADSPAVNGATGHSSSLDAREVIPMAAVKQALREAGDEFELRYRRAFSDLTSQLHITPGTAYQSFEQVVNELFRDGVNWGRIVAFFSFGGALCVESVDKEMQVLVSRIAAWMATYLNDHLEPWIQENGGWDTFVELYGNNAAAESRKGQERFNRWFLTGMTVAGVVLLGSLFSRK
row,effect of a mutation on the interaction,Variant
1,disrupting interaction strength,MAGSEELGLREDTLRVLAAFLRRGEAAGSPVPTPPRSPAQEEPTDFLSRLRRCLPCSLGRGAAPSESPRPCSLPIRPCYGLEPGPATPDFYALVAQRLEQLVQEQLKSPPSPELQGPPSTEKEAILRRAVALLEEEAEVINQKLASDPALRSKLVRLSSDSFARLVELFCSRDDSSRPSRACPGPPPPSPEPLARLALAMELSRRVAGLGGTLAGLSVEHVHSFTPWIQAHGGWEGILAVSPVDLNLPLD [L129A]

# Variants of: B1
# Details: with bcl2_human BCL2, P10415
# Sequence of bcl2_human BCL2, P10415 (P10415 whole entry): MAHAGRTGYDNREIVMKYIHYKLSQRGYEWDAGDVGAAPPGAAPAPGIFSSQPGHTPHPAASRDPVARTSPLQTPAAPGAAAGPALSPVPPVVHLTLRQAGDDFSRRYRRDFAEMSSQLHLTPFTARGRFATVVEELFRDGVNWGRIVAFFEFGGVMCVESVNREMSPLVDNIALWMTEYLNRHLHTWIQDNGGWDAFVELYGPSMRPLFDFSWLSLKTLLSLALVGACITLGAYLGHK
row,effect of a mutation on the interaction,Variant
1,disrupting interaction strength,MAGSEELGLREDTLRVLAAFLRRGEAAGSPVPTPPRSPAQEEPTDFLSRLRRCLPCSLGRGAAPSESPRPCSLPIRPCYGLEPGPATPDFYALVAQRLEQLVQEQLKSPPSPELQGPPSTEKEAILRRAVALLEEEAEVINQKLASDPALRSKLVRLSSDSFARLVELFCSRDDSSRPSRACPGPPPPSPEPLARLALAMELSRRVAGLGGTLAGLSVEHVHSFTPWIQAHGGWEGILAVSPVDLNLPLD [L129A]

# Reference: IntAct's records for PubMed 29749471
